The results in this text go back to publication PMC4449531, “Identification and characterization of a novel group of legume-specific, Golgi apparatus-localized WRKY and Exo70 proteins from soybean”.

Changes are numbered by the printed parent chain.

Data set [1] has as its target AtWRKY33 (Arabidopsis, UniProt Q8S8P5 1-519). The experiment in a line: EMSA; not stated; EMSA as in Zheng et al., 2006. As to conditions: protein: recombinant; tags: His (pET32a); label: labelled by Klenow fill-in.
The target in data set [2] is T1, GmWRP1 (Glycine max, UniProt I1MBG9 1-332).
T1 sequence: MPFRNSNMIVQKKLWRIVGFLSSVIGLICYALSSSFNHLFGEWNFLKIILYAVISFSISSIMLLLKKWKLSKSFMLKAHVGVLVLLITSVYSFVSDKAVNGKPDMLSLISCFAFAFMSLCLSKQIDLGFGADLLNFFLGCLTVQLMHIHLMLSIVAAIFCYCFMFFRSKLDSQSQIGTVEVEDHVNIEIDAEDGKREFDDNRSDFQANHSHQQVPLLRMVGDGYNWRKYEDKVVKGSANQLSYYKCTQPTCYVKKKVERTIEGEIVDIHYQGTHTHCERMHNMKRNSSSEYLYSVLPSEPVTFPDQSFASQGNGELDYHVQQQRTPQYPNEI
Briefly: EMSA; not stated; EMSA as in Zheng et al., 2006. Conditions: protein: recombinant; tags: His (pET32a); label: labelled by Klenow fill-in.

Chain of AtWRKY33 (Q8S8P5 whole entry): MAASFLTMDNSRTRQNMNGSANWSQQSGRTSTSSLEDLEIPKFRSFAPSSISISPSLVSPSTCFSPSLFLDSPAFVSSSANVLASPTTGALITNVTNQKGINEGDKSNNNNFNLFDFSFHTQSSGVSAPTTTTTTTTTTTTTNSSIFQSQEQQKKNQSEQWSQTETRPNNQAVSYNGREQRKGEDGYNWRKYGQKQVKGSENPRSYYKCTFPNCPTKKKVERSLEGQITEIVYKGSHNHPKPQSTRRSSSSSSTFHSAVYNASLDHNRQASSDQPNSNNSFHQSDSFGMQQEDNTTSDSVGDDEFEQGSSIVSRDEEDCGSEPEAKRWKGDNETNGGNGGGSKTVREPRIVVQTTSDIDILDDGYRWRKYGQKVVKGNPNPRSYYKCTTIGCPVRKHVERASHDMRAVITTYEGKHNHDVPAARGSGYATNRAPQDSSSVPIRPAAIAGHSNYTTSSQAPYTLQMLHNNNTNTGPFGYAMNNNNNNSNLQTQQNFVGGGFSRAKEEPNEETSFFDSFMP

B1: Pchn0 (dsDNA)
DNA 1: GGAACTTGACCTTGACCTTAGGGCTGCAGGAATTCG
DNA 2: CGAATTCCTGCAGCCCTAAGGTCAAGGTCAAGTTCC
In the case of B1, the binding result in data set [1] was “binds”; in data set [2], “no binding”.

B2: mPchn0 (dsDNA)
DNA 1: B1 DNA 1 with C10A, C16A
DNA 2: B1 DNA 2 with G21T, G27T
B2: the binding result in data set [1] and in data set [2] was “no binding” throughout.
